Results on six molecules are retold here after PMC2683983 (Molecular pharmaceutics, 2009).

Numbered stars: 1 amine (or outer) side, 2 acyl side, 3 side chain; on linkers, the order of the positions; unused ones are H or OH. Bridge positions count the residues as written; N and C are the ends. Peptide text beside a SMILES is read from it. * marks the point of attachment. Doxorubicin(3'-N) = COc1cccc2c1C(=O)c1c(O)c3c(c(O)c1C2=O)C[C@@](O)(C(=O)CO)C[C@@H]3O[C@H]1C[C@H](N*)[C@H](O)[C@H](C)O1; Suc = O=C(CCC(=O)[*:2])[*:1]; AEEEA = NCCOCCOCCOCC(=O)O

The conditions of series [1]: pH 7.4; cited from earlier work.
The next series relates to HL-60 cells. The following applies: HL-60, 10 μM, 1 h; for intracellular fluorescence distribution / uptake at 4 °C / intracellular fluorescence distribution at 37 °C: RPMI 1640, epifluorescence, rhodamine filter; for entry mechanism into cells: 37 °C compared with 4 °C.
The test system of series [2] is ICAM-1/LFA-1-mediated heterotypic T-cell adhesion. The following applies: cited from earlier work.
The subject of another series is I-domain of LFA-1. The following applies: cited from earlier work.

On to `COc1cccc2c1C(=O)c1c(O)c3c(c(O)c1C2=O)C[C@@](O)(C(=O)CO)C[C@@H]3O[C@H]1C[C@H](N)[C@H](O)[C@H](C)O1` [DOX, Doxorubicin, reference compound], for which, in series [1], the distribution ratio is 1.2. Further, in the series on HL-60 cells, the “intracellular fluorescence distribution / uptake at 4 °C” value is on record as “uptake of DOX was suppressed” and the “intracellular fluorescence distribution at 37 °C” value was “localized inside the nucleus”.

For the molecule `COc1cccc2c1C(=O)c1c(O)c3c(c(O)c1C2=O)C[C@@](O)(C(=O)CO)C[C@@H]3O[C@H]1C[C@H](NC(=O)CCC(=O)NCCOCCOCCOCC(=O)N[C@H]2CSSC[C@@H](C(=O)O)NC(=O)[C@H](C(C)C)NC(=O)[C@H](CO)NC(=O)CNC(=O)CNC(=O)[C@H](CCCNC(=N)N)NC(=O)[C@@H]3CCCN3C2=O)[C@H](O)[C@H](C)O1` [DOX-PEGcIBR7] ({Doxorubicin(3'-N)-Suc-AEEEA}-CPRGGSVC-OH; disulfide 1-8), in the series with HL-60 cells, the “intracellular fluorescence distribution / uptake at 4 °C” value is “diffuse fluorescence of the conjugates inside the cell cytosol”, the “entry mechanism into cells” value is reported as “passive diffusion” and the “intracellular fluorescence distribution at 37 °C” value is given as “diffuse fluorescence distribution pattern in the cellular cytoplasm”.

In the case of `COc1cccc2c1C(=O)c1c(O)c3c(c(O)c1C2=O)C[C@@](O)(C(=O)CO)C[C@@H]3O[C@H]1C[C@H](NC(=O)CCC(=O)N[C@H]2CSSC[C@@H](C(=O)O)NC(=O)[C@H](C(C)C)NC(=O)[C@H](CO)NC(=O)CNC(=O)CNC(=O)[C@H](CCCNC(=N)N)NC(=O)[C@@H]3CCCN3C2=O)[C@H](O)[C@H](C)O1` [DOX-cIBR7] ({Doxorubicin(3'-N)-Suc}-CPRGGSVC-OH; disulfide 1-8), in the series on HL-60 cells, the “intracellular fluorescence distribution / uptake at 4 °C” value is reported as “diffuse fluorescence of the conjugates inside the cell cytosol”, the “entry mechanism into cells” value is recorded as “passive diffusion” and the “intracellular fluorescence distribution at 37 °C” value is “diffuse fluorescence distribution pattern in the cellular cytoplasm”.

CNGRC [DOX-CNGRC]: the distribution ratio in series [1] is listed as 5.3.

Regarding cyclo(1,6)PRGGKV (head to tail), the “peptide activity after introduction of Lys5 in place of Ser5” value in series [2] is recorded as “lower peptide activity”.

Turning to cyclo(1,8)CPRGGSVC (disulfide) [cIBR7], the “activity to inhibit heterotypic T-cell adhesion compared with parent cIBR” value in series [2] was “better activity”. In addition, the “binding affinity to the isolated I-domain compared with cIBR” value with I-domain of LFA-1 is recorded as “higher”.
